From the supplement of paper PMC10567573

B1: VTI1B (parent)
chain: ANETLAEMEEELRYAPLSFRNPMM

Variants of: B1
Experiment: protein stability index of a GFP-peptide fusion (GPS, HEK-293T) (PSI 1-6); higher = more stable
Details: c terminus: a fixed tail appended
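Further: lentivirally expressed fusions sorted by FACS into six bins by GFP to DsRed ratio, PSI derived from sequencing read proportions per bin multiplied by bin number.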

Protein stability index, by site and new letter:
M23: C 3.62 | Q 2.89 | K 3.07 | W 2.13 | I 2.04 | Y 2.79 | F 2.62 | G 3.46 | L 3.56 | E 2.79 | N 3.67 | D 4.13 | A 2.71 | R 2.19 | H 3.24 | T 3.35
R20: T 2.42 | L 2.57 | Y 2.12 | W 2.48 | K 3.36 | G 2.65 | V 1.71 | S 2.03 | M 2.4 | Q 1.72 | D 2.48 | I 1.9 | N 1.51
M8: I 2.8 | K 2.4 | A 3.28 | L 2.3 | T 3.11 | S 3.14 | W 1.51 | Q 2.62 | E 3.1 | H 3.39 | C 2.94 | V 2.16 | D 3.37 | Y 2.73 | N 2.72
E11: V 1.65 | K 3.41 | A 2 | H 2.89 | Y 2.51 | R 2.31 | F 1.66 | L 2.29 | C 2.22 | Q 1.95 | T 3.25 | M 2.45 | I 2.69
Y14: N 2.62 | I 1.66 | C 1.98 | F 2.06 | L 3.08 | K 1.93 | A 2.48 | E 3.66 | P 2.43 | Q 1.67 | D 3.36 | V 2.09 | G 2.11 | R 2.47 | T 2.53 | M 1.65
A1: R 1.46 | K 2.04 | W 2.82 | F 1.81 | N 2.27 | D 2.69 | Y 2.54 | S 2.49 | L 2.14 | I 1.91 | H 2.16 | V 1.34 | T 2.36 | E 2.72 | M 2.65
L12: D 4.49 | Q 3.33 | R 2.59 | H 3.79 | W 2.19 | S 4.33 | F 3.14 | T 3.9 | A 3.14 | M 2.28 | G 2.62 | V 1.83 | E 3.65 | C 4.37 | N 4.82 | P 2.95 | K 3.27
M24: S 4.41 | F 2.83 | L 2.26 | Y 3.46 | D 3.92 | P 4.98 | T 3.97 | W 3.97 | H 3.26 | V 3.04 | E 4.67 | R 3.21 | G 3.72 | C 2.37 | Q 2.46 | K 3.91
E9: D 2.85 | G 2.19 | M 2.19 | F 2.71 | V 1.66 | L 2.45 | N 2.87 | C 2.33 | W 1.3 | K 1.8 | T 2.94 | Y 2.48 | S 2.78
A15: D 3.7 | H 1.9 | C 1.64 | G 3.44 | K 3.09 | R 1.76 | T 2.06 | I 2.06 | W 2.92 | Y 2.52 | N 2.64 | S 1.61
P16: E 2.66 | W 1.89 | V 1.3 | Q 2.29 | C 1.92 | K 2.92 | I 2.43 | R 2.71 | H 2.64 | G 2 | S 2.92 | M 1.77 | L 1.88 | T 2.77 | F 2.17 | D 3.56
F19: Y 2.35 | N 4.3 | D 4.85 | R 4.18 | Q 3.96 | H 4.26 | G 4.5 | A 3.94 | V 3.28 | C 4.43 | E 4.67 | P 4.87 | W 3.24 | M 4.23 | T 4.44 | K 4.49
T4: D 2.33 | N 2.79 | R 1.99 | M 2.07 | Q 2.54 | A 2.15 | L 2.47 | W 1.99 | F 2.12 | S 2.58 | K 2.72 | P 2.41
E10: L 2.05 | N 2.55 | M 1.87 | S 2.56 | R 1.17 | Y 1.69 | D 1.62 | H 3.06 | G 1.49 | I 2.05 | P 2.73 | W 1.96 | C 2.16 | Q 3.3 | K 2.73 | T 3.02
E3: I 2.1 | T 2.01 | W 2.29 | Y 1.94 | A 2.18 | G 2.51 | V 2.13 | H 2.43 | M 2.1 | C 2.01 | Q 2.53 | N 2.43 | F 1.96 | S 2.27
S18: R 3.8 | H 2.94 | N 2.23 | A 2.21 | E 3.79 | V 3.14 | K 3.81 | I 2.83 | Y 3.25 | D 2.98 | C 2.24 | P 4.1 | T 1.79 | F 2.64 | L 3.19
P22: Q 4.11 | L 3.34 | S 3.48 | M 3.63 | K 3.43 | N 3.58 | Y 3.38 | H 4.1 | R 3.32 | E 3.97 | F 2.67 | C 3.25 | D 4.75 | I 3.03 | T 3.22 | A 3.56
N21: G 3.72 | L 3.13 | C 2.71 | Q 3.76 | R 3.25 | P 3.58 | S 3.41 | T 3.17 | M 3.37 | A 3.81
L17: E 4.46 | C 3.58 | K 3.69 | Q 4.14 | F 1.52 | P 3.78 | V 2.8 | I 3.02 | A 3.66 | G 3.49 | T 4.06 | W 2 | N 4.16
A6: G 2.17 | P 2.51 | Y 2.18 | E 2.77 | C 2.12 | I 1.85 | F 3.33 | S 2.73 | M 2.86 | T 1.79 | L 1.88
E7: F 2.1 | C 2.01 | K 2.52 | M 2.21 | G 1.9 | Y 2.31 | L 2.5 | Q 2.31 | A 2.85 | N 2.61 | D 2.69 | T 2.53 | S 2.84
N2: L 2.58 | G 2.01 | Q 2.27 | P 2.52 | I 2.53 | H 2.9 | R 1.26 | A 2.91 | S 1.94
L5: C 2.69 | I 2.16 | Q 2.86 | N 3.05 | F 2.96 | A 2.7 | E 3.32 | T 3.01 | H 3.14 | D 3.62 | V 2.78 | P 2.73 | W 2.01 | Y 2.4 | S 2.96
R13: S 2.25 | A 2.04 | K 1.46 | L 1.7 | V 2.64 | P 2.75 | H 1.82 | W 2.03 | F 2.01 | G 1.67 | E 2.11 | N 1.94
